Experimental data as given in patent US20230212554A1.

Experiments:
[1] = substrate: NP of B/Brisbane/60/2008(fluB) (influenza B virus B/Brisbane/60/2008); assay: ELISA on virus-infected fixed MDCK cells
[2] = substrate: NP of A/Brisbane/59/2007(H1N1/H1B) (influenza A virus A/Brisbane/59/2007 (H1N1)); assay: ELISA on virus-infected fixed MDCK cells
[3] = substrate: NP of A/Brisbane/59/2007(H1N1/H1B) (influenza A virus A/Brisbane/59/2007 (H1N1)); assay: sandwich ELISA, capture IgG; NP of lysed virus titrated; HRP-NP16 detection
[4] = substrate: NP of A/Brisbane/59/2007(H1N1/H1B) (influenza A virus A/Brisbane/59/2007 (H1N1)); assay: sandwich ELISA, capture IgG; NP of lysed virus titrated; HRP-NP17 detection

| Binder | EC50 [1] [nM] | EC50 [2] [nM] | EC50 [3] [nM] | EC50 [4] [nM] |
| --- | --- | --- | --- | --- |
| NP20 (antibody, V domains shown) VH: EVQLVESGGGLVQPGGSLRLSCAASGFTINGYSIHWVRQAPGKGLEWVASIGPYGGFTYYADSVKGRFTISADTSKNTAYLQMNSLRAEDTAVYYCAGFGFYYWGQGTLVTVSS VL: DIQMTQSPSSLSASVGDRVTITCRASQDVGYGVAWYQQKPGKAPKLLISGASGLYSGVPSRFSGSGSGTDFTLTISSLQPEDFATYYCQQYSSFPLTFGQGTKVEIKR | 4.88 | – | – | – |
| NP21 (antibody, V domains shown) VH: EVQLVESGGGLVQPGGSLRLSCAASGFTINGYGIHWVRQAPGKGLEWVAGIWPYGGSTFYADSVKGRFTISADTSKNTAYLQMNSLRAEDTAVYYCARFYNNHGGIMDYWGQGTLVTVSS VL: DIQMTQSPSSLSASVGDRVTITCRASQDVYFYVAWYQQKPGKAPKLLIYGSRWLYSGVPSRFSGSGSGTDFTLTISSLQPEDFATYYCQQYSNFPVTFGQGTKVEIKR | – | 4.6 | 2.71 | 0.81 |
| NP22 (antibody, V domains shown) VH: EVQLVESGGGLVQPGGSLRLSCAASGFTISDWSIHWVRQAPGKGLEWVAGIWPYWGSTSYADSVKGRFTISADTSKNTAYLQMNSLRAEDTAVYYCARGFYSWFDYWGQGTLVTVSS VL: DIQMTQSPSSLSASVGDRVTITCRASQDVFSWVAWYQQKPGKAPKLLISSASSLYSGVPSRFSGSGSGTDFTLTISSLQPEDFATYYCQQSWDYPITFGQGTKVEIKR | 3.92 | 7.11 | 59.4 | 102 |
| NP24 (antibody, V domains shown) VH: EVQLVESGGGLVQPGGSLRLSCAASGFTIDDWYIHWVRQAPGKGLEWVAGIGPYGGFTYYADSVKGRFTISADTSKNTAYLQMNSLRAEDTAVYYCARGYYGSFDYWGQGTLVTVSS VL: DIQMTQSPSSLSASVGDRVTITCRASQDVGSSVAWYQQKPGKAPKLLIFYTSSLYSGVPSRFSGSGSGTDFTLTISSLQPEDFATYYCQQGWDSPVTFGQGTKVEIKR | 3.17 | – | – | – |
| NP25 (antibody, V domains shown) VH: EVQLVESGGGLVQPGGSLRLSCAASGFTIGGGFIHWVRQAPGKGLEWVASIWPYWGFTYYADSVKGRFTISADTSKNTAYLQMNSLRAEDTAVYYCARGSYGYSDYWGQGTLVTVSS VL: DIQMTQSPSSLSASVGDRVTITCRAGQDVSSGVAWYQQKPGKAPKLLISWTSFLYSGVPSRFSGSGSGTDFTLTISSLQPEDFATYYCQQYYDYPITFGQGTKVEIKR | 2.17 | 4.83 | – | – |
| NP3 (antibody, V domains shown) VH: EVQLVESGGGLVQPGGSLRLSCAASGFTISNYGIHWVRQAPGKGLEWVAGIWPFGGFTSYADSVKGRFTISADTSKNTAYLQMNSLRAEDTAVYYCARFHWNDHGYMDYWGQGTLVTVSS VL: DIQMTQSPSSLSASVGDRVTITCRASQDVGWYVAWYQQKPGKAPKLLIYSTTGLYSGVPSRFSGSGSGTDFTLTISSLQPEDFATYYCQQYYNYPITFGQGTKVEIKR | – | 0.521 | 2.36 | 1.04 |
| NP5 (antibody, V domains shown) VH: EVQLVESGGGLVQPGGSLRLSCAASGFTISNGSIHWVRQAPGKGLEWVAGIWPSGGSTSYADSVKGRFTISADTINNSAYLQMNSLRAEDTAVYYCARWNYWGQGTLVTVSS VL: DIQMTQSPSSLSASVGDRVTITCRASQDVGWSVAWYQQKPGKAPKLLIYGSRWLYSGVPSRFSGSGSGTDFTLTISSLQPEDFATYYCQQGYNGPLTFGQGTKVEIKR | – | – | 4.02 | 1.82 |
| NP6 (antibody, V domains shown) VH: EVQLVESGGGLVQPGGSLRLSCAASGFTINDGSIHWVRQAPGKGLEWVAGIGPFGGFTYYADSVKGRFTISADTSKNTAYLQMNSLRAEDTAVYYCARSGYSGSFDYWGQGTLVTVSS VL: DIQMTQSPSSLSASVGDRVTITCRASQDVYFGVAWYQQKPGKAPKLLIYGTSYLYSGVPSRFSGSGSGTDFTLTISSLQPEDFATYYCQQFSNWPITFGQGTKVEIKR | – | – | 78.3 | – |
| NP7 (antibody, V domains shown) VH: EVQLVESGGGLVQPGGSLRLSCAASGFTISNGGIHWVRQAPGKGLEWVAGIGPYGGFTSYADSVKGRFTISADTSKNTAYLQMNSLRAEDTAVYYCARFYSNYYGYHGVMDYWGQGTLVTVSS VL: DIQMTQSPSSLSASVGDRVTITCRASQDVFGWVAWYQQKPGKAPKLLISYSASLYSGVPSRFSGSGSGTDFTLTISSLQPEDFATYYCQQYFNYPLTFGQGTKVEIKR | – | – | 4.13 | 4.15 |
| NP15 (antibody, V domains shown) VH: EVQLVESGGGLVQPGGSLRLSCAASGFTISNWYIHWVRQAPGKGLEWVAGIGPYGGSTYYADSVKGRFTISADTSKNTAYLQMNSLRAEDTAVYYCARFHWDHLHGMDYWGQGTLVTVSS VL: DIQMTQSPSSLSASVGDRVTITCRASQDVDNNVAWYQQKPGKAPKLLISYSTGLYSGVPSRFSGSGSGTDFTLTISSLQPEDFATYYCQQYWNYPITFGQGTKVEIKR | – | 0.668 | 4.61 | 0.926 |
| NP16 (antibody, V domains shown) VH: EVQLVESGGGLVQPGGSLRLSCAASGFTIGNSGIHWVRQAPGKGLEWVAWIGPYWGFTSYADSVKGRFTISADTSKNTAYLQMNSLRAEDTAVYYCARFGNHWHLFMDYWGQGTLVTVSS VL: DIQMTQSPSSLSASVGDRVTITCRASQDVGSYVAWYQQKPGKAPKLLISWTTGLYSGVPSRFSGSGSGTDFTLTISSLQPEDFATYYCQQYFSYPVTFGQGTKVEIKR | – | 0.21 | 4.74 | 0.89 |
| NP17 (antibody, V domains shown) VH: EVQLVESGGGLVQPGGSLRLSCAASGFTISGGSIHWVRQAPGKGLEWVASIWPFGGSTFYADSVKGRFTISADTSKNTAYLQMNSLRAEDTAVYYCARFGHGHNVIMDYWGQGTLVTVSS VL: DIQMTQSPSSLSASVGDRVTITCRASQDVGYSVAWYQQKPGKAPKLLISSPGGLYSGVPSRFSGSGSGTDFTLTISSLQPEDFATYYCQQYYDYPVTFGQGTKVEIKR | – | – | 4.08 | 2.22 |
| NP19 (antibody, V domains shown) VH: EVQLVESGGGLVQPGGSLRLSCAASGFTISSWGIHWVRQAPGKGLEWVAGIGPFWGYTSYADSVKGRFTISADTSKNTAYLQMNSLRAEDTAVYYCARFGVDNYGYMDYWGQGTLVTVSS VL: DIQMTQSPSSLSASVGDRVTITCRASQDVSGWVAWYQQKPGKAPKLLISWSTGLYSGVPSRFSGSGSGTDFTLTISSLQPEDFATYYCQQYFNFPVTFGQGTKVEIKR | – | 0.295 | 3.37 | 0.812 |
| NP18 (antibody, V domains shown) VH: EVQLVESGGGLVQPGGSLRLSCAASGFTISGGGIHWVRQAPGKGLEWVASIWPSWGSTSYADSVKGRFTISADTSKNTAYLQMNSLRAEDTAVYYCARFHNGGFLVMDYWGQGTLVTVSS VL: DIQMTQSSSSLSASVGDRVTITCRASQDVGYYVAWYQQKPGKAPKLLIYGPRFLYSGVPSRFSGSGSGTDFTLTISSLQPEDFATYYCQQYSNWPITFGQGTKVEIKR | – | 7 | – | 66.4 |
| NP2 (antibody, V domains shown) VH: EVQLVESGGGLVQPGGSLRLSCAASGFTIGGGGIHWVRQAPGKGLEWVAGIWPYWGYTFYADSVKGRFTISADTSKNTAYLQMNSLRAEDTAVYYCARFWHGNLDVMDYWGQGTLVTVSS VL: DIQMTQSPSSLSASVGDRVTITCRASQDVYGYVAWYQQKPGKAPKLLIYGAAGLYSGVPSRFSGSGSGTDFTLTISSLQPEDFATYYCQQYSNFPLTFGQGTKVEIKR | 4.89 | – | – | – |
